The experiment deals with S-enantioselective imine reductase from Mycobacterium smegmatis (S-IRED-Ms) (Mycobacterium smegmatis). Description: crystal structure; holo-S-IRED-Ms co-crystallised with 5 mM NADPH; 10 mg/mL protein, 20% (w/v) PEG 3350, 0.2 M sodium formate, sitting drop, 4 °C; 1.55 Å, five monomers in the asymmetric unit.

The values below come from article PMC7465668.

Broadly, the stoichiometry N is a count of units in the complex or per binding partner.

For the substance “S-enantioselective imine reductase from Mycobacterium smegmatis (S-IRED-Ms) (enzyme)”, the stoichiometry N stood at 2.
